# According to article PMC7736808, “Dual conformational recognition by Z-DNA binding protein is important for the B–Z transition process”:
# T1: GH5*:α3NADAR1-PW (/ human ADAR1 α3N and β-wing residues, UniProt P02259, K41G;S42G;R43G;K53A;R95A;del65;D66K;L67K;Q68E;K70N;L71R;S72V;I73L;R74Y;R75S;S91P …)
# T1 sequence: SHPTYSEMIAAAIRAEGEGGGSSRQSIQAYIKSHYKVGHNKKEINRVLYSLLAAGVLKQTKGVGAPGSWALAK
# T2: GH5* (UniProt P02259, K41G;S42G;R43G;K53A;R95A)
# T2 sequence: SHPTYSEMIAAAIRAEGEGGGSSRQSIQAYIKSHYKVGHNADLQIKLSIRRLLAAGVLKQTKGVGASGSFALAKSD
# T3: hZαADAR1 (human, UniProt P55265)
# T3 sequence: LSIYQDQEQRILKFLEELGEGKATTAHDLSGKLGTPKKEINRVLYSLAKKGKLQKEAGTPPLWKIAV
# B1: B-DNA 21 bp (dsDNA)
# DNA 1: TATGCAATCGTAATAAACCGT
# DNA 2: ACGGTTTATTACGATTGCATA
# Columns and labels:
# vvZαE3L = vvZαE3L (UniProt P21605); assay: MST; 20 mM NaCl; text says 20 uM; MST at 22 C, 5 nM labeled DNA, 0.5 mg/ml BSA, 0.05% Tween 20; 5 mM HEPES pH 7.5, 20 mM NaCl (Table 2); 20 mM HEPES pH 8.0, 100 mM NaCl (Table 4); 20 mM Tris-HCl pH 7.8, 150 mM KCl (Table 5); details: protein: recombinant; label: 5'-Alexa647 on strand 1; blunt
# GH5*:α3NADAR1-PW [1] = target: T1, GH5*:α3NADAR1-PW; assay: MST; 100 mM NaCl, pH 8.0; MST at 22 C, 5 nM labeled DNA, 0.5 mg/ml BSA, 0.05% Tween 20; 5 mM HEPES pH 7.5, 20 mM NaCl (Table 2); 20 mM HEPES pH 8.0, 100 mM NaCl (Table 4); 20 mM Tris-HCl pH 7.8, 150 mM KCl (Table 5); details: protein: recombinant; chain copies: 2; label: 5'-Alexa647 on strand 1; blunt
# GH5* = target: T2, GH5*; assay: MST; 150 mM KCl, pH 7.8; MST at 22 C, 5 nM labeled DNA, 0.5 mg/ml BSA, 0.05% Tween 20; 5 mM HEPES pH 7.5, 20 mM NaCl (Table 2); 20 mM HEPES pH 8.0, 100 mM NaCl (Table 4); 20 mM Tris-HCl pH 7.8, 150 mM KCl (Table 5); details: protein: recombinant; label: 5'-Alexa647 on strand 1; blunt
# GH5*:α3NADAR1-PW [2] = target: T1, GH5*:α3NADAR1-PW; assay: as above; details: protein: recombinant; chain copies: 2; label: 5'-Alexa647 on strand 1; blunt
# hZαADAR1 = target: T3, hZαADAR1; assay: MST; 20 mM NaCl; text says 1.8 uM; MST at 22 C, 5 nM labeled DNA, 0.5 mg/ml BSA, 0.05% Tween 20; 5 mM HEPES pH 7.5, 20 mM NaCl (Table 2); 20 mM HEPES pH 8.0, 100 mM NaCl (Table 4); 20 mM Tris-HCl pH 7.8, 150 mM KCl (Table 5); details: protein: recombinant; tags: N-terminal His6, cleaved by thrombin; chain copies: 2; label: 5'-Alexa647 on strand 1; blunt
binder,measurement,setting,value
B1,Kd,vvZαE3L,21 ± 0.5 µM
same,Kd,GH5*:α3NADAR1-PW [1],31 ± 2 µM
same,Kd,GH5*,167 ± 50 µM
same,Kd,GH5*:α3NADAR1-PW [2],144 ± 16 µM
same,Kd,hZαADAR1,2.7 ± 0.5 µM
